In publication PMC10180619 (Nature Communications, 2023):

Target: T1, SARS-CoV-2 WT (Wuhan-1) receptor binding domain (SARS-CoV-2, Wuhan-Hu-1, UniProt P0DTC2, biotin (EZ-Link Sulfo-NHS-LC-Biotin, average of four biotins per RBD molecule))
T1 construct: source: bought: Acro Biosystems (Cat #SPD-C52H3)
Assay: BLI
Settings: both partners purified

B1: ADI-81654 (Fab, V domains shown)
VH: QVQLKQSGPTLVKPTQTLTLTCTFSGFSLSTYGVGVGWIRQPPGKALEWLALIYYDDDKRYSPSLKSRLTITKDTSQNQVVLTMTNMDPVDTATYYCARHTIATIFDFDSWGQGTLVTVSS
VL: QSVLTQPASVSGSPGQSITISCTGTSSDVGGHNYVSWYQQHPGKAPKLMIYEVSNRPSGVSNRFSGSKSGNTASLTISGLQAEDEADYSCSSYASSTSPVVFGGVTKLTVL
Question: How did the Kd turn out when B1 was run?
Answer: 56 nM
